# Experimental data published in patent US7910550B2, “Human kunitz-type inhibitor with enhanced antifibrinolytic activity” (STC.UNM, priority 2004, dated 2011).
# Numbering of substitutions follows the chain as printed. Numbers in names are those of the source.
# B1: R24Q TFPI-2: full-length TFPI-2 mutant, P1 arginine R24 to glutamine; inactive mutant (protein)
# chain: DAAQEPTGNNAEICLLPLDYGPCQALLLRYYYDRYTQSCRQFLYGGCEGNANNFYTWEACDDACWRIEKVPKVCRLQVSVDDQCEGSTEKYFFNLSSMTCEKFFSGGCHRNRIENRFPDEATCMGFCAPKKIPSFCYSPKDEGLCSANVTRYYFNPRYRTCDAFTYTGCGGNDNNFVSREDCKRACAKALKKKKKMPKLRFASRIRKIRKKQF
# B2: KD1: the first Kunitz-type domain of human TFPI-2 (SEQ ID NO:2), recombinant, expressed in E. coli (protein, listed as Homo sapiens)
# chain: DAAQEPTGNNAEICLLPLDYGPCRALLLRYYYDRYTQSCRQFLYGGCEGNANNFYTWEACDDACWRIEKVPKV
# B3: R24Q KD1: KD1 point mutant, arginine 24 to glutamine; lacks reactive site arginine/lysine residue (protein)
# chain: B2 chain with R24Q
# modifications: left off: small tags and cut ends
# Assays:
# [1] = system: human umbilical vein endothelial cells (HUVECs); assay: In vitro human endothelial cell angiogenesis assay (capillary tube formation on ECMATRIX); format: cell-based
# Source text: The angiogenesis assay is commercially available from Chemicon International, Inc. (Temecula, Calif.), and involves growing human umbilical vein endothelial cells (HUVECs) on a proprietary matrix, followed by assessing angiogenesis on this matrix by counting new branch points in sprouting endothelial cells.
# A semi-quantitative assay for in vitro angiogenesis was utilized. Human umbilical vein endothelial cells (HUVEC, Clonetics Corp., Walkersville, Md.) were maintained in 25 cm^2 flasks in EGM-2 media (Clonetics Corp.) supplemented with 2% fetal bovine serum, gentamicin, amphotericin-B, hEGF, hydrocortisone, VEGF, hFGF-B, R^3-IGF-1, ascorbic acid and heparin. For assay, a 48-well tissue culture plate was coated with 100 μl of ECMATRIX (Chemicon International, Inc., Temecula, Calif.) followed by incubation at 37° C. for one hour. Approximately 5×10^4 cells were then seeded onto the surface of the polymerized matrix. Varying concentrations of full-length human TFPI-2, diluted in EGM-2 media and filtered, were added to the wells and plate was placed in 37° C.-humidified CO2 incubator. Each treatment was performed in duplicate wells. Separately, VEGF was used as a positive control. The three-dimensional organization of cells was examined every hour under an inverted photomicroscope. The capillary tube branch point formation was counted in each well following eight hours of incubation. For each concentration, eight randomly chosen areas under 250× magnified field were observed. The results are expressed as number of branching points (mean±SEM) and the differences between each mean value was tested by one way analysis of variance (ANOVA). Statistically p-value <0.05 was accepted.
# To examine the effect of full-length human TFPI-2 on morphogenesis (capillary-like tube formation) of endothelial cells, HUVECs were seeded on the matrigel and treated with full-length human TFPI-2 (0.2 μM-5 μM).
# trypsin = details: relative to TFPI-2; cited from earlier work
# plasmin = plasmin (Homo sapiens, UniProt P00747); details: relative to TFPI-2; cited from earlier work
# Chain of plasmin (P00747 581-810 limits assumed, species assumed): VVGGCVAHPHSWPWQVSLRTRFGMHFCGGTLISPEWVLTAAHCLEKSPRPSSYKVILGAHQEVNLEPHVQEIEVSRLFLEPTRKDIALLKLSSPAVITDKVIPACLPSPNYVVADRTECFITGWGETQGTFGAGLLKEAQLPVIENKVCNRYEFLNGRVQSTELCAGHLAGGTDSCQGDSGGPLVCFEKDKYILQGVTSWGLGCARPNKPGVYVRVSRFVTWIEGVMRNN
# Chain of plasmin (P00747 97-580 partner limits assumed, species assumed): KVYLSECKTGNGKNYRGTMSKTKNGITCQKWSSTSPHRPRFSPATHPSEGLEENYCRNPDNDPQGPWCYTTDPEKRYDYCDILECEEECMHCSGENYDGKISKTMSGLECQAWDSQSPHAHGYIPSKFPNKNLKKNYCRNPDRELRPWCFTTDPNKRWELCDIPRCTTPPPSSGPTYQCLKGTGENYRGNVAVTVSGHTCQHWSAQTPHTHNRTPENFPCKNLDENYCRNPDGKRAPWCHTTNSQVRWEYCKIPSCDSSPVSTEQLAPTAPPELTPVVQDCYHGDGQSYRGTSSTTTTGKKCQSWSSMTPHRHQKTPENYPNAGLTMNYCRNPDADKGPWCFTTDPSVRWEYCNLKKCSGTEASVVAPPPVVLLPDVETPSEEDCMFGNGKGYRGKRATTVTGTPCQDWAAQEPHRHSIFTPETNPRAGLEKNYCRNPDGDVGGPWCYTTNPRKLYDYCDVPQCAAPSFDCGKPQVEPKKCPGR
# [2] = target: factor VIIa-tissue factor complex (Homo sapiens, UniProt P08709); details: relative to TFPI-2; cited from earlier work
# Chain of factor VIIa-tissue factor complex (P08709 213-466 limits assumed): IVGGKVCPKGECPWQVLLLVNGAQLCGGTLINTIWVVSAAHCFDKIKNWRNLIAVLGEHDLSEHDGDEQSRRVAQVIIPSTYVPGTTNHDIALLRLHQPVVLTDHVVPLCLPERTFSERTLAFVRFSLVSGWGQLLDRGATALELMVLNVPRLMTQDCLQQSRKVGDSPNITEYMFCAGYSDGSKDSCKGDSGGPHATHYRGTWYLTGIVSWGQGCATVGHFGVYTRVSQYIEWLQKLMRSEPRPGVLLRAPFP
# Chain of factor VIIa-tissue factor complex (P08709 61-212 partner limits assumed): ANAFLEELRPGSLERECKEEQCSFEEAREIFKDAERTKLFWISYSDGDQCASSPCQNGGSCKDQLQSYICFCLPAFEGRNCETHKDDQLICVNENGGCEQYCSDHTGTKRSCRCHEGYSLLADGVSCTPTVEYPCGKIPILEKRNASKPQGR
# Chain of factor VIIa-tissue factor complex (P13726 33-295 partner): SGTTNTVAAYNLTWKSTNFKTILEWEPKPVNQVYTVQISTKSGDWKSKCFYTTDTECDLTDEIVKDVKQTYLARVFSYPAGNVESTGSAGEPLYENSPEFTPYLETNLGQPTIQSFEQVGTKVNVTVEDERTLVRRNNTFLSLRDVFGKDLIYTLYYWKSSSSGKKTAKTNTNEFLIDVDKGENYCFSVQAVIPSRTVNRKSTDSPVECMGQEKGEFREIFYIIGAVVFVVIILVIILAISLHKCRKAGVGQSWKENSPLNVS
# [3] = system: murine model of allergic asthma; assay: Murine model of allergic asthma (OVA-immunized B6D2F1 mice); format: in vivo; details: lateral tail vein, days 11-14; vs vehicle treated mice
# Protocol: B6D2F1 mice were immunized with ovalbumin (OVA) adsorbed to alum (days 0 and 5) and received two OVA aerosols on day 12. A subgroup of mice were treated with hexahistidine-tagged KD1, delivered via the lateral tail vein, on days 11-14. Mice were sacrificed on day 15 for the enumeration and differentiation of cells in the airway and lung tissue compartments.
# HT-1080 cells [4] = assay: FACS analysis of apoptosis with annexin V/propidium iodide; format: cell-based, human; details: 1 μM, 48 hours
# Protocol: (§1) All cell lines were maintained in Dulbecco's minimal essential medium (DMEM), supplemented with heat-inactivated 10% fetal bovine serum and penicillin-streptomycin. The cells were cultured either in 6- or 12-well plates at 37° C. in a humidified atmosphere containing 6% CO2. At confluence, the cells were treated with fresh medium containing either wild-type TFPI-2, R24K KD1, or R24Q KD1. Cells were treated in duplicate with purified proteins at concentrations ranging from 0.5 μM to 10 μM for different time intervals. One set were also treated with PBS to serve as a control. The Limulus Amebocyte Lysate (LAL) assay was performed on each protein preparation to determine the presence of any endotoxin/LPS, and only trace amounts of endotoxin (<0.5 ng/L) were detected in each protein preparation.
# To assess the degree of apoptosis between the various treatments, cells were grown to confluence in 6 well plates and treated with either proteins or vehicle as described earlier. For annexin V staining, approximately 1.2×10^6 cells were harvested with PBS containing 1 mM EDTA and washed twice gently with cold PBS. The cells were suspended in 100 μl of cold binding buffer (10 mM Hepes (pH 7.4), 140 mM NaCl, 2.5 mM CaCl2), and subsequently incubated at room temperature in the dark for 25 minutes with 5 μl of FITC-conjugated annexin V and 10 μl of propidium iodide (50 μg/ml stock). The cells were then washed in 500 μl of binding buffer to remove unbound reagents, centrifuged at 900×g for 5 minutes, and resuspended in 1 ml of cold binding buffer. The labeled cells were then analyzed using a FACSCALIBUR flow cytometer (Becton Dickinson, San Jose, Calif.) and the data analyzed using […] software.
# HT-1080 cells [5] = assay: Apoptosis detection by AO/EB staining; format: cell-based, human; details: 1 μM, 48 h; approximately 5% in vehicle-treated cells
# Protocol: as §1
# Cells were grown to confluence in two-chamber culture slides containing 2 ml medium. For AO/EB staining, the cultures were treated with recombinant proteins as described above. […] Cells were viewed within 30 minutes of staining and counted using a Zeiss axiocam epifluorescence microscope (Carl Zeiss, Inc., Thornwood, N.Y.) equipped with a triple cube filter [DAPI/FITC/RITC]. […] Experiments were performed in triplicate, and a minimum of 100 total live and apoptotic cells were counted in each treatment.
# HT-1080 cells [6] = assay: Western blot of cell extracts (Bax, Bcl-2, cleaved caspase-9, cleaved caspase-3); format: cell-based, human; details: 1 μM, 48 hours; vs vehicle-treated cells
# Protocol: Cell extracts were analyzed for the pro-apoptotic Bax, the anti-apoptotic Bcl-2, cleaved caspase-9 and cleaved caspase-3 by immunoblotting techniques. Approximately, 1×10^6 HT-1080 cells were grown to confluence in 6-well plates and treated with recombinant proteins and vehicle as described above. Both floating and adherent cells were harvested and washed twice with cold PBS. The cells were lysed by sonication in 500 μl of lysis buffer containing of 125 mM Tris-HCl (pH 6.8), 2% SDS, 10% glycerol, 50 mM sodium phosphate, 1 mM PMSF and protease inhibitor cocktail. The lysate was kept on ice for about 10 minutes, centrifuged for 15 minutes at 10,000×g at 4° C., and the supernatant recovered. The supernatants were boiled for 3 min and 50 μg of lysate protein subjected to SDS-PAGE in 4-20% polyacrylamide gradient gels. […] The nitrocellulose membranes were then probed with specific antibodies dissolved in fresh blocking buffer, and immunoreactive proteins were identified using HRP-conjugated secondary antibodies and a chemiluminescent reagent system essentially as described in Kempiah et al., Mol. Cancer, 6:20, 2007. Separate blots were treated with mouse monoclonal anti-α-tubulin antibody in order to verify equal loading of lysate proteins onto the gel.
molecule,measurement,setting,value
VEGF [reference compound],time to first visible tube,[1]; approximately 4 hours in the control,≤ 3 h
same,number of tube formation,"[1]; positive control, compared to control HUVECs",significant increase in number of tube formation
B1,inhibitory activity toward trypsin,trypsin,5-10%
same,lost inhibitory activity towards trypsin,trypsin,> 90%
same,inhibitory activity toward plasmin,plasmin,5-10%
same,lost inhibitory activity towards plasmin,plasmin,> 90%
same,inhibitory activity toward factor VIIa-tissue factor complex,[2],5-10%
same,lost inhibitory activity towards factor VIIa-tissue factor complex,[2],> 90%
B2,inhibition of angiogenesis (capillary-like tube formation),[1]; HUVECs on matrix,does not inhibit angiogenesis
same,"cells, macrophages and lymphocytes recoverable from the airways",[3],significant decrease in the number of airway macrophages and lymphocytes
B3,cells in a late apoptotic stage (annexin V and PI positive),HT-1080 cells [4]; vehicle 4%,~15%
same,early apoptotic cells (annexin V-FITC positive),HT-1080 cells [4]; vehicle 16%,55%
same,apoptotic cells (AO/EB staining),HT-1080 cells [5],18%
same,activated caspase 9 and activated caspase 3 (immunoblot),HT-1080 cells [6],levels were significantly lower than that observed with TFPI-2 or R24K KD1
